Where two headings read alike, the source gives them in different places.

Experiment [1] has as its target T1, trimeric, post-fusion form of sE, the soluble fragment of dengue virus type 2 (S1 strain) envelope glycoprotein E (dengue virus type 2 S1 strain), P12823.
Experiment [2] deals with T1, trimeric, post-fusion form of sE, the …. Put plainly: fluorescence depolarization.
The target is the same in experiment [3]. The experiment in a line: fluorescence depolarization, labeled peptide titrated with trimeric sE.
Experiment [4] has the same target. The experiment in a line: fluorescence depolarization; 33nM labelled peptide titrated with dengue sE trimer (x axis µM E).

In turn, AILGDTAWDFGSLGGVFTSIGKALHQVFGAIYGAA (modifications not checked) [stem peptide including residues 413-447 of dengue envelope protein E] gave an EC50 (read off the curve) in experiment [1] of 3 µM. Moreover, the Kd in experiment [2] came out at 4 µM.

Molecule SSIGQMFETTMRGAKRMAILGDTAWDFGSLGGVF (modifications not checked) [fluorescently labeled version of the peptide corresponding to residues 396-429 (stem region) of deng] came in with a Kd in experiment [3] of 6 µM. Further, the EC50 (read off the curve) in experiment [4] stood at 5 µM.

By EC50 (read off the curve) is commonly meant the midpoint of the concentration-response curve. In general, Kd refers to the constant that tells how readily two partners part at equilibrium. The low end stands for tighter binding, the high end for weaker binding.
